Measurements as given in patent US9944717 (BROTEIO PHARMA B V, dated 2018).
One block for each binder: values may come before it.

Tests used:
[1] = molecular target: T1, C1s-cleaved glycosylated recombinant human C2 (human, UniProt P06681 21-243; P06681 244-752, N-linked glycans); assay: ELISA, C1s-cleaved C2 coated at 200 ng per well
T1 construct: Cleavage at the Arg243-|-Lys244 bond as printed; also called C1s-cleaved recombinant human C2; C1s-cleaved C2; not shown: N-terminal his-tag
T1 sequence 1: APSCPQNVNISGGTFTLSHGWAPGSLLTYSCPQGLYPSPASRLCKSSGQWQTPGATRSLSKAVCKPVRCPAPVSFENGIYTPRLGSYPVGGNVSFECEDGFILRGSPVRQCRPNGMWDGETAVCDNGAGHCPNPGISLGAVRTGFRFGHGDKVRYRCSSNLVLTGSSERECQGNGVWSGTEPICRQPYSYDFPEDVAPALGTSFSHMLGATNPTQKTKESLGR
T1 sequence 2: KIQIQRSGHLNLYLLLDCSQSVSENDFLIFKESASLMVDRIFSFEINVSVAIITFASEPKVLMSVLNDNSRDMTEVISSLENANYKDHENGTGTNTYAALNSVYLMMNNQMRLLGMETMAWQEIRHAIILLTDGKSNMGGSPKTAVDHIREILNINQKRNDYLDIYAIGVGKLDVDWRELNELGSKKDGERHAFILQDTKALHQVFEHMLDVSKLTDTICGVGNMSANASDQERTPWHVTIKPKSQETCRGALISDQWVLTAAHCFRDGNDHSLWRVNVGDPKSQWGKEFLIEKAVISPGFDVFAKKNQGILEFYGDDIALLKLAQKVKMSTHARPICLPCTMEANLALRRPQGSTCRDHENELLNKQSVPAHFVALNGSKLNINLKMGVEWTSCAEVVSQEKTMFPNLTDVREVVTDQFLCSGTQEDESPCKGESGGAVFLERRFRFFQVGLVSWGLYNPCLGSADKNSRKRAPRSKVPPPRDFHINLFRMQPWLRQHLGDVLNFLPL

[2] = molecular target: T2, glycosylated recombinant human complement C2 with a N-terminal his-tag (human, UniProt P06681 21-752, N-linked glycans); assay: ELISA, C2 coated at 25 or 200 ng per well
T2 construct: also called recombinant human C2; wild-type recombinant C2; not shown: N-terminal his-tag
T2 sequence: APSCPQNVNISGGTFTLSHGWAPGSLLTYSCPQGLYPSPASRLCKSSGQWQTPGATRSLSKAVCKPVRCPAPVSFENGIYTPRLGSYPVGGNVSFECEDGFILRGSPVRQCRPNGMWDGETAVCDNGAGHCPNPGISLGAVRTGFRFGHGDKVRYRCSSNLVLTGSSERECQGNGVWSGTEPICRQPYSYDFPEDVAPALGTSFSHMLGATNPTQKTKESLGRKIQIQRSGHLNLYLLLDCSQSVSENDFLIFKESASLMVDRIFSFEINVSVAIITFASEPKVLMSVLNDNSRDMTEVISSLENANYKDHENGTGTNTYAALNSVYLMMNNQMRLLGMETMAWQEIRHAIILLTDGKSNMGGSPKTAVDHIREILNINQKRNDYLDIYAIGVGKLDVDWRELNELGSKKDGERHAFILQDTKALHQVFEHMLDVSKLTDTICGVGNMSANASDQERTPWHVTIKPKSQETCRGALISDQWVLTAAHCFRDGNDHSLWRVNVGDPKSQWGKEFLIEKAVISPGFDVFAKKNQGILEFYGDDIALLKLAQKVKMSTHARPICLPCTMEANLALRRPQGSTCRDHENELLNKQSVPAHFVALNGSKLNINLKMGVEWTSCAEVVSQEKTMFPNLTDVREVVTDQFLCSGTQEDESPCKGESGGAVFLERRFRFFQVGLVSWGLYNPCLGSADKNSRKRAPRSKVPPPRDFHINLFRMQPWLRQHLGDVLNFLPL
Experimental: Chimeric mouse-human antibodies (human IgG1κ version for anti-C2-32, and human IgG4κ version for anti-C2-5F2.4, -13, -32, -35 and -60) were expressed using FreeStyle™ MAX CHO (CHO-S cells) Expression System (Invitrogen). Expressed chimeric mouse-human anti-human complement C2 antibodies were purified using affinity chromatography protein A columns (GE Healthcare). Using the same ELISA procedure as described in Example 3, all anti-C2 chimeric mAbs were tested for binding to high (200 ng per well) and low (25 ng per well) recombinant C2. Briefly, ELISA plates (Corning) were coated with the indicated amount of C2 in PBS overnight at 4° C. After extensive washing in PBS/0.05% Tween 20, plates were blocked with PBS/0.05% Tween 20/1% BSA fraction V (Roche) for 1 hour at RT. […] After extensive washing in PBS/0.05% Tween 20, binding of antibodies was determined with 1:5000 diluted horseradish peroxidase-conjugated goat anti-human IgG-specific (heavy and light chains) antibodies (Jackson ImmunoResearch) for 1 hour at RT, followed by a ready-to-use solution of TMB substrate (Invitrogen) for colorimetric detection. After adding 1 M H_2SO_4, optical densities were measured at a wavelength of 450 nm (reference wavelength of 655 nm) using a microplate reader (BioRad).

[3] = molecular target: T2, glycosylated recombinant human …; assay: ELISA, C2 coated at 200 ng per well
[4] = molecular target: T3, glycosylated recombinant human subcomponent C2a (≈70 kDa) (human, UniProt P06681 244-752, N-linked glycans); assay: Western blot of C1s-cleaved C2, non-reducing, mAb at 200 ng/mL
T3 construct: Larger fragment of C1s-cleaved recombinant C2; Start 244 follows from the printed cleavage site; also called purified C2a; recombinant human C2a
T3 sequence: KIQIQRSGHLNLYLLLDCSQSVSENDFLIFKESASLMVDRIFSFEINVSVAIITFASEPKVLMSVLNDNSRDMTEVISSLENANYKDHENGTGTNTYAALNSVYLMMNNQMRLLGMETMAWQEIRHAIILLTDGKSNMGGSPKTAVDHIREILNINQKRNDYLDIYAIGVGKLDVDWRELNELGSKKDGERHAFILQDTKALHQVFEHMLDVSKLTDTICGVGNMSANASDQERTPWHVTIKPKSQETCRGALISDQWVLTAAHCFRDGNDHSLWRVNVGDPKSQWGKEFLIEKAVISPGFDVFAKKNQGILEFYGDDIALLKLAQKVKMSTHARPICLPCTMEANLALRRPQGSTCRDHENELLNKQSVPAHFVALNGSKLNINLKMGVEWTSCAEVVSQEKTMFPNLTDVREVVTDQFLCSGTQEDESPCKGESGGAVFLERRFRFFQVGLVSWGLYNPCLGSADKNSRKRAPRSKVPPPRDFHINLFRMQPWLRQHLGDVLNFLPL
Experimental: (a). Mapping of Epitopes for mAbs Anti-C2-13, -32, -35, -60 and -5F2.4 on Glycosylated Recombinant Human Subcomponents C2a and C2b with Western Blotting Glycosylated recombinant human C2 (range 125-500 ng/lane, see FIG. 9; U-protein Express) or C1s-cleaved glycosylated recombinant human C2 (range 62.5-1000 ng/lane, see FIG. 9; for C2 cleavage procedure, see Example 1(b)) were electrophorized using 4-12% Tris-Bis gels and MOPS running buffer (Invitrogen) under non-reducing conditions in pre-cast SDS-PAGE (NuPage® Novex® system). Then, the C2 proteins were electro-blotted onto a polyvinylidene fluoride (PDVF) transfer membrane (Millipore). After blocking with PBS/0.05% Tween 20/1% BSA fraction V (Roche) for 20 min at RT, PDVF membranes were incubated with anti-C2 mAbs anti-C2-C2-5F2.4 (100 ng/mL), anti-C2-13 (200 ng/mL), anti-C2-32 (200 ng/mL), anti-C2-35 (100 ng/mL) and anti-C2-60 (200 ng/mL) for 1 hour at RT. After extensive washing in PBS/0.05% Tween 20, binding of anti-C2 mAbs was determined with 1:10,000 diluted horseradish peroxidase-conjugated goat anti-mouse Fcγ-specific antibodies (Jackson ImmunoResearch) for 1 hour at RT, followed by a ready-to-use solution of TMB substrate (Sigma) for colorimetric detection.

[5] = molecular target: T2, glycosylated recombinant human …; assay: ELISA, recombinant human C2 immobilized at 2 µg/ml
Experimental: Chimeric mouse-human antibodies (human IgG1κ version for anti-C2-32, and human IgG4κ version for anti-C2-5F2.4, -13, -32, -35 and -60) were expressed using FreeStyle™ MAX CHO (CHO-S cells) Expression System (Invitrogen). Expressed chimeric mouse-human anti-human complement C2 antibodies were purified using affinity chromatography protein A columns (GE Healthcare). Using the same ELISA procedure as described in Example 3, all anti-C2 chimeric mAbs were tested for binding to high (200 ng per well) and low (25 ng per well) recombinant C2. Briefly, ELISA plates (Corning) were coated with the indicated amount of C2 in PBS overnight at 4° C. After extensive washing in PBS/0.05% Tween 20, plates were blocked with PBS/0.05% Tween 20/1% BSA fraction V (Roche) for 1 hour at RT. Subsequently, plates were incubated with 0, 0.00002-20.0 (10-fold dilution steps in block buffer) μg/mL protein A-purified chimeric mouse-human IgG1κ and/or IgG4κ anti-C2-5F2.4, -13, -32, -35 and -60 for 1 hour at RT. After extensive washing in PBS/0.05% Tween 20, binding of antibodies was determined with 1:5000 diluted horseradish peroxidase-conjugated goat anti-human IgG-specific (heavy and light chains) antibodies (Jackson ImmunoResearch) for 1 hour at RT, followed by a ready-to-use solution of TMB substrate (Invitrogen) for colorimetric detection. After adding 1 M H_2SO_4, optical densities were measured at a wavelength of 450 nm (reference wavelength of 655 nm) using a microplate reader (BioRad).
Binding of humanized anti-C2-5F2.4 mAbs versions VL3VH3, VL4VH3, VL3VH4, and VL4VH4 to C2 was assessed by ELISA like described above in Example 12 (recombinant human C2 was immobilized to plates at 2 µg/ml).

binding result [2]: binds
B2: chimeric mouse-human IgG4κ anti-human complement C2-5F2.4 (antibody, V domains shown)
VH: EVQLQQSGAELVKPGASVKISCKASGYTFTDYNMDWVKQSHGKSLEWIGDINPNYESTGYNQKFKGKATLTVDKSSSTAYMELRSLTSEDTAVYYCAREDDHDAFAYWGQGTLVTVSA
VL: DIVLTQSPASVVVSLGQRATISCRASKSVRTSGYNYMHWYQQKPGQPPKLLIYLASNLKSGVPARFSGSGSGTDFTLNIHPVEEADAATYYCQHSRELPYTFGGGTKLEIKR
notes: Stabilized human IgG4 / human κ, expressed in CHO-S cells; also called chimeric anti-C2-5F2.4; chuIgG4κ anti-C2-5F2.4

binding result [5]: binds
B8: humanized IgG4/kappa anti-human complement C2-5F2.4 version VL4VH3 (antibody)
heavy: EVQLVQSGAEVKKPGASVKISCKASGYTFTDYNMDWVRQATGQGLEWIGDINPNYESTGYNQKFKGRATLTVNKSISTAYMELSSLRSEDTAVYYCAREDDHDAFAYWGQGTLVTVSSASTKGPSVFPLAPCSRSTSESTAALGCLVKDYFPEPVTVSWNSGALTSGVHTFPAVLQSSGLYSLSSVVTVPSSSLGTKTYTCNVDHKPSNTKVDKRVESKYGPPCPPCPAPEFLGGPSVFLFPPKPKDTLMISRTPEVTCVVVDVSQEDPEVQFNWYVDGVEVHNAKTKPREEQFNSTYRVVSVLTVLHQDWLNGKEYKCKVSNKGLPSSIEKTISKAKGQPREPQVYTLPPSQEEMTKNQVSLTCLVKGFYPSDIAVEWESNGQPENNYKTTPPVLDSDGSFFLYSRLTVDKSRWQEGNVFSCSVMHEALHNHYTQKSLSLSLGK
light: DNVLTQSPDSLAVSLGERATINCRASKSVRTSGYNYMHWYQQKPGQPPKLLIYLASNLKSGVPDRFSGSGSGTDFTLTISSLQAEDAATYYCQHSRELPYTFGQGTKLEIKRTVAAPSVFIFPPSDEQLKSGTASVVCLLNNFYPREAKVQWKVDNALQSGNSQESVTEQDSKDSTYSLSSTLTLSKADYEKHKVYACEVTHQGLSSPVTKSFNRGEC
notes: Stabilized human IgG4, κ; expressed with the FreeStyle 293 system

The next lines start with the binder.

B1: mouse anti-human complement C2 antibody anti-C2-5F2.4 (mIgG2aκ) (antibody, V domains shown)
VH: EVQLQQSGAELVKPGASVKISCKASGYTFTDYNMDWVKQSHGKSLEWIGDINPNYESTGYNQKFKGKATLTVDKSSSTAYMELRSLTSEDTAVYYCAREDDHDAFAYWGQGTLVTVSA
VL: DNVLTQSPASVVVSLGQRATISCRASKSVRTSGYNYMHWYQQKPGQPPKLLIYLASNLKSGVPARFSGSGSGTDFTLNIHPVEEADAATYYCQHSRELPYTFGGGTKLEIKR
notes: also called mAb 5F2.4
binding result [1]: binds

B3: mouse anti-human complement C2 antibody anti-C2-60 (mIgG1κ) (antibody, V domains shown)
VH: QVALKESGPGILQPSQTLSLTCSFSGFSLSTSNMGVGWIRQPSGKGLEWLAHIWWDDDKRYNPALKSRLTISKDTSSNQVFLKIASVDTADTATYFCARIGRPTMITTWYLDVWGAGTTVTVSS
VL: DIQMTQSPASLSVSVGETVTITCRASENIYSNLAWYQQKQGKSPQLLVYAATKLADGVPSRFSGSGSGTQYSLKINSLQSEDFGNYYCQHFWNTPYTFGGGTKLEIKR
notes: Hybridoma antibody, murine IgG1κ; also called antibody 60; hybridoma 60
binding result [3]: binds | binding result [1]: binds | binding result [4]: binds

B4: chimeric mouse-human IgG4κ anti-human complement C2-60 (antibody, V domains shown)
VH: QVQLQQSGPGILQPSQTLSLTCSFSGFSLSTSNMGVGWIRQPSGKGLEWLAHIWWDDDKRYNPALKSRLTISKDTSSNQVFLKIASVDTADTATYFCARIGRPTMITTWYLDVWGAGTTVTVSS
VL: DIQMTQSPASLSVSVGETVTITCRASENIYSNLAWYQQKQGKSPQLLVYAATKLADGVPSRFSGSGSGTQYSLKINSLQSEDFGNYYCQHFWNTPYTFGGGTKLEIKR
notes: Stabilized human IgG4 / human κ, expressed in CHO-S cells; also called chimeric anti-C2-60; chuIgG4κ anti-C2-60
binding result [2]: binds

B5: humanized IgG4/kappa anti-human complement C2-5F2.4 version VL3VH3 (antibody)
heavy: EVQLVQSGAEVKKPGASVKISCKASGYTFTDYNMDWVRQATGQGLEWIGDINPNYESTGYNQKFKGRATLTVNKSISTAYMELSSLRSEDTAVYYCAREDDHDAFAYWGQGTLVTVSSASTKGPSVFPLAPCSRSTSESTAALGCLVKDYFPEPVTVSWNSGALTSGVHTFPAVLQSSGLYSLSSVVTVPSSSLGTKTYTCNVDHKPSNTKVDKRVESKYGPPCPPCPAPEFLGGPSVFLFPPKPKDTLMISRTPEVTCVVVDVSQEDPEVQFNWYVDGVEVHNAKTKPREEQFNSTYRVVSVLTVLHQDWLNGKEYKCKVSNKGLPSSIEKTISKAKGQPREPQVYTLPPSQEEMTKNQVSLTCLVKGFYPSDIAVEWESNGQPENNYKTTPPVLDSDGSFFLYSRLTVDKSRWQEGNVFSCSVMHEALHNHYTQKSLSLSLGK
light: DNVLTQSPDSLAVSLGERATISCRASKSVRTSGYNYMHWYQQKPGQPPKLLIYLASNLKSGVPDRFSGSGSGTDFTLTISSLQAEDAATYYCQHSRELPYTFGQGTKLEIKRTVAAPSVFIFPPSDEQLKSGTASVVCLLNNFYPREAKVQWKVDNALQSGNSQESVTEQDSKDSTYSLSSTLTLSKADYEKHKVYACEVTHQGLSSPVTKSFNRGEC
notes: as for B8
binding result [5]: binds

B6: humanized IgG4/kappa anti-human complement C2-5F2.4 version VL3VH4 (antibody)
heavy: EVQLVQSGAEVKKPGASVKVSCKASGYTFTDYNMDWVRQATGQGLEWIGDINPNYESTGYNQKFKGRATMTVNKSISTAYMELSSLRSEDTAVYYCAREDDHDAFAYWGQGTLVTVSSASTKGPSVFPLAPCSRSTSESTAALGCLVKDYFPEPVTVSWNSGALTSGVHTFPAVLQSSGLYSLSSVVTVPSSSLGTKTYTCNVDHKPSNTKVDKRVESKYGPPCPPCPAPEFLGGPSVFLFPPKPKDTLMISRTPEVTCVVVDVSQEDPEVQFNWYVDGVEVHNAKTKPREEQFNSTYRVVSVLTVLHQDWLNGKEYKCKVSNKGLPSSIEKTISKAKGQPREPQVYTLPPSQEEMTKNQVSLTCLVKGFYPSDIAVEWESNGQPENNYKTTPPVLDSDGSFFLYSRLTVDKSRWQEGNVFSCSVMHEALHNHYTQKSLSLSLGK
light: DNVLTQSPDSLAVSLGERATISCRASKSVRTSGYNYMHWYQQKPGQPPKLLIYLASNLKSGVPDRFSGSGSGTDFTLTISSLQAEDAATYYCQHSRELPYTFGQGTKLEIKRTVAAPSVFIFPPSDEQLKSGTASVVCLLNNFYPREAKVQWKVDNALQSGNSQESVTEQDSKDSTYSLSSTLTLSKADYEKHKVYACEVTHQGLSSPVTKSFNRGEC
notes: as for B8
binding result [5]: binds

B7: humanized IgG4/kappa anti-human complement C2-5F2.4 version VL4VH4 (antibody)
heavy: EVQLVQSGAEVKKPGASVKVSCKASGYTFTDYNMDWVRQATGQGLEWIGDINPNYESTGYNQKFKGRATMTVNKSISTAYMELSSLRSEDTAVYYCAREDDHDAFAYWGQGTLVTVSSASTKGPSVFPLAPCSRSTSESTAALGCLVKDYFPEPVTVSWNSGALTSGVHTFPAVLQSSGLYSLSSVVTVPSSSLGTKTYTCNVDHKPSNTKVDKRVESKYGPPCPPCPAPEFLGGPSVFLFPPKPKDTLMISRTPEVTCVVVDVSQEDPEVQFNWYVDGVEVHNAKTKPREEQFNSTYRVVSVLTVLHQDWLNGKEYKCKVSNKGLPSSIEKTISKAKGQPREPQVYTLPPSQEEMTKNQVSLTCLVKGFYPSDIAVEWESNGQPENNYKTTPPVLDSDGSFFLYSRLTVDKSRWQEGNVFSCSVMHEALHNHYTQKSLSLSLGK
light: DNVLTQSPDSLAVSLGERATINCRASKSVRTSGYNYMHWYQQKPGQPPKLLIYLASNLKSGVPDRFSGSGSGTDFTLTISSLQAEDAATYYCQHSRELPYTFGQGTKLEIKRTVAAPSVFIFPPSDEQLKSGTASVVCLLNNFYPREAKVQWKVDNALQSGNSQESVTEQDSKDSTYSLSSTLTLSKADYEKHKVYACEVTHQGLSSPVTKSFNRGEC
notes: as for B8
binding result [5]: binds
